From the supplement of paper PMC10567573
± gives the standard deviation.

Assay: protein stability index of a GFP-peptide fusion (GPS, HEK-293T) (PSI 1-6); higher = more stable
[1] = treatment: DMSO, c terminus: a fixed tail appended
[2] = treatment: MLN4924 1 uM, 8 h, c terminus: a fixed tail appended
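Note: 24-mer peptide tiles fused after GFP, lentivirally expressed, FACS-sorted into six equal bins by GFP/DsRed ratio, decoded by Illumina sequencing, PSI is the read-weighted mean bin number.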

Sequence | protein stability index [1] | protein stability index [2] | protein stability index (treatment: DMSO, c terminus: native) | protein stability index (treatment: MLN4924 1 uM, 8 h, c terminus: native)
MLPGVGVFGTSLTARVIIPLLKDE [GFOD1] | 2.17 ± 0.19 | 2.02 ± 0.16 | – | –
SAWKTVACGGTRDQLFMQEKARQL [MYBL2] | 3.21 ± 0.33 | 3.33 ± 0.28 | – | –
YFHINQTLREAHFHSLQHRGRPLT [FAM104A] | 2.96 ± 0.15 | 3.21 ± 0.31 | – | –
NLKWLDLKDNPLDPVLAKVAGDCL [LRRC59] | 3.21 ± 0.26 | 3.08 ± 0.19 | – | –
RDPQAVKERALSAPWLSLFPPEGN [ZNF263] | 3.06 ± 0.27 | 3.14 ± 0.33 | – | –
YSDNPCSCSQSHCCSRYLCMGAMS [SPRY1] | 2.62 ± 0.22 | 2.71 ± 0.35 | – | –
RLEQEIATYRSLLEGQDAKMIGFP [KRT13] | 3.06 ± 0.1 | 3.36 ± 0.34 | – | –
IQSRVQELHPESGEEAVTLVEDMQ [ZNF263] | 5.42 ± 0.18 | 5.44 ± 0.11 | – | –
RKLSLKGHNDWVMDVAISNNKKWI [WDR88] | 2.69 ± 0.42 | 2.39 ± 0.29 | – | –
LVDQVTGVSRGVGFIRFDKRIEAE [ELAVL3] | 2.97 ± 0.52 | 2.88 ± 0.62 | – | –
RFCCCVAVIYLGYCFCGWIVLGPY [MCOLN1] | 3.41 ± 0.26 | 3.28 ± 0.48 | – | –
KETLRLHPDIFLPSEICDRLVNEY [ZER1] | 2.82 ± 0.39 | 2.83 ± 0.21 | – | –
LIGAAAFLGGVVRMTISLTVILIE [CLCN6] | 3.27 ± 0.53 | 2.75 ± 1.3 | – | –
ASDPLLSSVSPAVSKASSRRSSFS [TFE3] | 4.69 ± 0.15 | 4.79 ± 0.25 | – | –
SNFHINVEESVDGQVVSSHKREI [KRT15] | – | – | 2.91 ± 1 | 3.83 ± 1
GYIDPEELAEIFRASGEHVTDEEI [TNNC2] | 5.01 ± 0.87 | 4.99 ± 0.17 | – | –
ALAEGYRYPELDTPKLDCFLSGME [TBX6] | 3.2 ± 0.48 | 3.5 ± 0.19 | – | –
RLIATKNPEEIRGGGLLKYSNLLV [TENT5C] | 2.44 ± 0.35 | 2.26 ± 0.26 | – | –

Sequence | protein stability index [1] | protein stability index [2] | protein stability index (treatment: DMSO, c terminus: native) | protein stability index (treatment: MLN4924 1 uM, 8 h, c terminus: native)
TPATPEDPAPLWGPPPAQGSPGDG [EMID1] | 5.3 ± 0.48 | 5.31 ± 0.22 | – | –
IIELLGSIPRHFALSGKYSREFFN [SRPK2] | 2.75 ± 0.54 | 2.56 ± 0.39 | – | –
ILLSKEPDGVWAYNRGEHPIFVNS [SMAD6] | 2.2 ± 0.19 | 2.44 ± 0.2 | – | –
SSREDSLEAGLPLQVRGYPEEKKE [CHGA] | 5.49 ± 0.21 | 5.5 ± 0.3 | – | –
SRLMVVVKMDSSIQPGPFRAVLKY [RHOBTB2] | 2.9 ± 0.56 | 2.79 ± 0.53 | – | –
GYNPDYDESGGPDNEDYPLFRELW [KLHDC10] | 3.37 ± 0.36 | 3.47 ± 0.18 | – | –
PMPLSEGKSILLFGGAAAVAILAV [BCL2L13] | 2.77 ± 0.76 | 2.75 ± 0.69 | – | –
RDNAELEKLIQERSQQQEPLLCPS [KRT34] | 4.94 ± 0.13 | 4.87 ± 0.27 | – | –
CGKCFSQNTHLTRHQRTHTGEKPY [ZNF263] | 2.94 ± 0.16 | 3.22 ± 0.14 | – | –
CIMDDAINILQNEKSHQVLAQLLD [INTS4] | 2.18 ± 0.21 | 2.37 ± 0.23 | – | –
RHLAHSMLQRAIAYQHSGHLESKD [C10orf62] | 3.91 ± 0.24 | 3.92 ± 0.21 | – | –
KHPRQTLEVINLLRKHRELCDVVL [KLHL20] | 2.34 ± 0.43 | 2.17 ± 0.25 | – | –
IHGFPWWPARVLDISLGQKEDGEP [PWWP2B] | 3.05 ± 0.18 | 3.54 ± 0.4 | – | –
CFVLFSLTHTHTHTPNHRGINCFF [ANKRD44] | 2.66 ± 0.032 | 2.82 ± 0.5 | – | –
EINKRTAAENEFVLLKKDVDAAYA [KRT71] | 3.76 ± 0.26 | 4.24 ± 0.24 | – | –
GARLGGFNFVSTPKCSCGQLAAVH [RNF180] | 2.36 ± 0.55 | 2.54 ± 0.21 | – | –
IIVRTTNKKYYKKFSIPDLDRHQL [DPCD] | 2.29 ± 0.55 | 2.14 ± 0.29 | – | –
NIKANDYANAVLQALSNVPPLRNY [USP39] | 2.18 ± 0.21 | 2.03 ± 0.32 | – | –
